Publication PMC5079111 (Cell, 2016)

Target: His-NPM1 (human, UniProt P06748 1-294)
Assay: pull-down

His-NPM1, sequence (P06748 whole entry): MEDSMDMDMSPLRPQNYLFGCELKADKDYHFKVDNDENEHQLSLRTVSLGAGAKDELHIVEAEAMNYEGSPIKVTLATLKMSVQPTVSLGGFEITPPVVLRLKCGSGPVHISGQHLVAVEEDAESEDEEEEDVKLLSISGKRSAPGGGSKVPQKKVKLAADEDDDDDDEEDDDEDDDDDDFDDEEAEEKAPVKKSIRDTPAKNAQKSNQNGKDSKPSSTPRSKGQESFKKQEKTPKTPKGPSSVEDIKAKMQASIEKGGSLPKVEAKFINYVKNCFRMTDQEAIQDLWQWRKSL

binding result	Binder
binds	PRPRPRPRPRPRPRPRPRPRPRPRPRPRPRPRPRPRPRPR [PR20-FLAG peptide]
binds	GRGRGRGRGRGRGRGRGRGRGRGRGRGRGRGRGRGRGRGR [GR20-FLAG peptide]
